The target in this assay is CD3 on T cells (Jurkat T cells; PBMC-T cells). In words: flow cytometry on Jurkat T cells; protein purified on CH1 resin. (A flow cytometer gives signals particle by particle.)

The values below come from patent publication US20220089722A1.

As a reminder, the Kd is the constant that tells how readily two partners part at equilibrium. Read a high Kd as weaker binding.

Chain of CD3 on T cells (Jurkat T cells; PBMC-T cells) (P07766 23-207): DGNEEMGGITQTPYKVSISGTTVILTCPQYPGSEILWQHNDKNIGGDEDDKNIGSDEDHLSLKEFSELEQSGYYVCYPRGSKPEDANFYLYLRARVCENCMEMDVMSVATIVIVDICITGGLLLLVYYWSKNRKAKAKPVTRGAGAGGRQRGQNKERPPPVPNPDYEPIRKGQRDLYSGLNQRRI

B1: IgFD-36(anti-CD3) (antibody, human IgG1, kappa, V domains shown)
VH: EVQLVESGGGLVQPGGSLRLSCAASGFTFNTYAMNWVRQAPGKGLEWVARIRSKYNNYATYYADSVKDRFTISRDDSKNTLYLQMNSLRAEDTAVYYCVRHGNFGNSYVSWFAYWGQGTLVTVSS
VL: QAVVTQEPSLTVSPGGTVTLTCRSSTGAVTTSNYANWVQQKPDHLFRGLIGGTNKRAPGTPARFSGSLLGDKAALTISGAQPEDEAEYYCALWYSNLWVFGGGTKLTVLK
The molecule B1 gave a Kd of 6.12 nM.
